B1: C11 (Fc fusion)
VL: ETTLTQSPGTLSVSPGERVTLSCRASQSVSSYLAWYQQKPGQAPRLLIYGASTRATGIPDRFSGSGSGTDFTLTISRLEPEDFAVYYCQQYGISPLNFGGGTKVEIK
VH: QVQLVQSGAEVKKPGSSVKVSCKASGGTFSSYAISWVRQAPGQGLEWMGGVIPIFGTANYAQKFRGRVTMTTDTSTSTAYMELRSLTSDDTAVYYCASPQGTWSTFLEWQGAFSVWGQGTTVTVSS
B2: C32 (Fc fusion)
VL: DIQMTQSPAIMSASPGERVTMTCSASSSIRYIYWYQQKPGSSPRLLIYDTSNVAPGVPFRFSGSGSGTSYSLTINRMEAEDAATYYCQEWSGYPYTFGGGTKVEIKR
VH: QVQLVQSGAEVKKPGSSVKVSCKASGGSFSSYAISWVRQAPGQGLEWMGGIIPIFGTANYAQKFQGRVTITADESTSTAYMELSSLRSEDTAVYYCANLRGGSSHYGMDVWGQGTLVTVSS
B3: C8 (Fc fusion)
VL: QSALTQPASASGSPGQSVTISCTGTSSDVGGYNYVSWYQQHPGKAPKLMIYDVSKRPSGVSDRFSGSKSGNTASLTISGLQAEDGADYYCSSYRRGRTVVFGGGTKLTVL
VH: QVQLQQWGGGLVQPGGSLRLSCAASGFTFSSYAMSWVRQAPGKGLEWVSAISGSGGSTYYADSVKGRFTISRDNSKNTLYLQMNSLRAEDTAVYYCAKNYFGNPRGFDYWGQGTMVTVSS

Biological target: T1, rhACE2 (ACRO, Human ACE2/ACEH Protein, His Tag, #AC2-H52H8) (human, UniProt Q9BYF1 18-740)
T1 construct: not shown: His tag
Assay: ELISA, rhACE2 coated at 0.2 ug/well, antibody at 0.02-2.5 ug/ml, anti-human-Fc-HRP, absorbance at 450 nm

T1 sequence (Q9BYF1 18-740 limits assumed): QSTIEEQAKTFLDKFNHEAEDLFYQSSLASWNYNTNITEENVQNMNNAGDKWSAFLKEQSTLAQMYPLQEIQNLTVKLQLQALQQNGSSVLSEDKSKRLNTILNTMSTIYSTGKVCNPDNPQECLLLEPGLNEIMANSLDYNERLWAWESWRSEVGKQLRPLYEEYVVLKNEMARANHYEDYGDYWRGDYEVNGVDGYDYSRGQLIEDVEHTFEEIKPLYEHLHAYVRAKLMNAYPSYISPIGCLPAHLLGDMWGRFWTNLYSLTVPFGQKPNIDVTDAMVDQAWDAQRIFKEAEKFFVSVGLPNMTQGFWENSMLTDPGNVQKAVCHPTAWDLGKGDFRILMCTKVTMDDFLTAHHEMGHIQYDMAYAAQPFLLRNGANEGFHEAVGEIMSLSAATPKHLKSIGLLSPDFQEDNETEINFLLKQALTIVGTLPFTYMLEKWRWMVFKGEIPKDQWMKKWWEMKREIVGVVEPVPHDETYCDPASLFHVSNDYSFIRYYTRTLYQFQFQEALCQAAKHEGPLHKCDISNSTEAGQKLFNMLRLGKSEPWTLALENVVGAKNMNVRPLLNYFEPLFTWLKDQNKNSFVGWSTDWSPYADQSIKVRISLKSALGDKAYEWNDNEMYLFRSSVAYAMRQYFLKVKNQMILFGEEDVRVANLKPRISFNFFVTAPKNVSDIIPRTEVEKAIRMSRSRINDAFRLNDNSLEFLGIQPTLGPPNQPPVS

Binder | binding result
B1 | binds
B2 | binds
B3 | binds

Source: patent US20250270297A1 (DAEGU GYEONGBUK INSTITUTE OF SCIENCE AND TECHNOLOGY, published 2025)
